Measured values: IntAct's records for PubMed 19706414

Biological target: casp8_human CASP8 (UniProt Q14790)
Sequence (Q14790 whole entry): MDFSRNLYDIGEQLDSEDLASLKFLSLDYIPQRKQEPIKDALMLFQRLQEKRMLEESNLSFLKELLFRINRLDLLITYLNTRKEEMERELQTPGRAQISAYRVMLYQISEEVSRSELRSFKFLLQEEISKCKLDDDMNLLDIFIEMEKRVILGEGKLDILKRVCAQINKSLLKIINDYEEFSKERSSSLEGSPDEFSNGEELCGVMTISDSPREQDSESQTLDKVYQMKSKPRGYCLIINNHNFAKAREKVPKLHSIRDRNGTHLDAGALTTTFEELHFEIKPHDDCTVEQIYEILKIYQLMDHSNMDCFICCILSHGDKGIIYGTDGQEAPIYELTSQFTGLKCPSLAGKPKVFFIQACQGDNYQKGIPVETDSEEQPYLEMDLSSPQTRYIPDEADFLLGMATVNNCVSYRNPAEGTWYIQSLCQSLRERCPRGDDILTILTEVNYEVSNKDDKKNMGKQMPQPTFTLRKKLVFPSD

Chain of Osteopontin (Homo sapiens), P10451-1 D135A;D157A (P10451 whole entry D135A/D157A): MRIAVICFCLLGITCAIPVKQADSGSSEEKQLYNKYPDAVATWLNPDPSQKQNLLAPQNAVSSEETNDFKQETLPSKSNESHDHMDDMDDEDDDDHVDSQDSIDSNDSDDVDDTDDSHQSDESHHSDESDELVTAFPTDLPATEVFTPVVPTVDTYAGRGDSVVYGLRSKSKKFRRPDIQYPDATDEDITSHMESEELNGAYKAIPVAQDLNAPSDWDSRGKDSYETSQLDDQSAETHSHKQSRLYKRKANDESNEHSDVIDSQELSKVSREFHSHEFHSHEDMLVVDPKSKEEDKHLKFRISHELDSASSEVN

Osteopontin (Homo sapiens), P10451-1 D135A;D157A
effect of a mutation on the interaction: disrupting interaction
